assay: yeast display, Sf9 membrane polyspecificity reagent, FACS + sequencing; frameworks hold sequencing errors
Procedure, shortened: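 Polyreactivity labels are assigned by the sorting gate from which each nanobody was recovered. The gates were low and high (top ~1%), set on anti-HA fluorescence for expression and streptavidin fluorescence for reagent binding. Before sorting, galactose-induced (36–48 hours) yeast display cells were stained for 1 hour at 4 °C with 10% biotinylated, detergent-solubilized Sf9 membrane reagent.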

Row | Sequence | polyreactivity (PSR sort gate)
1 | QVQLVESGGGLVQAGGSLRLSCAASGFTFKRNGMGWYRQAPGKERELVAAISSSGGNTYYADSVKGRFTISRDNAKNTVYLQMNSLKPEDTAVYDCAAASRYFDRDYWGQGTQVTVSS | high polyreactivity
2 | QVQLVESGGGLVQAGGSLRLSCAASGFTFKRYAMGWYRQAPGKERELVAAISYGGSRTYYADSVKGRFTISRDNAKNTVYLQMNSLKPEDTAVYYCNFRRRTWHYITSMDYWGQGTQVTVSS | high polyreactivity
3 | QVQLVESGGGLVQAGGSLRLSCAASGFTFKRYAMGWYRQARGKERELVAAISWSGSSTYYADSVKGRFTISRDNAKNTVYLQMNSLKPEDTAVYYCAARSFRPAYDYWGQGTQVTVSS | high polyreactivity
4 | QVQLVESGGGLVQAGGSLRLSCAASGFTFKSYAMGWYRPAPGKERELVAGITRTGVSTYYADSVKGRFTISRDNAKNTVYLLMNSLKPEDTAVYYCAAGIRHIYQSYAFYKFDYWGQGTQVTVSS | high polyreactivity
5 | QVQLVESGGGLVQAGGSLRLSCAASGFTFKVYAMGWYRQAPGKERELVAAISKSGGSTYYADSVKGRFTISRDNAMNTVYLQMNSLKPEDTAVDYCATGGYAYVYPYDYWGQGTQVTVSS | low polyreactivity
6 | QVQLVESGGGLVQAGGSLRLSCAASGFTFKWYTMGWYRQAPGKERELVAGISRRGGSTYYADSVKGRFTISRDNAKNTFYLQMNSLKPEDTAVYYCAADSKLTKFYYWGQGTQVTVSS | high polyreactivity
7 | QVQLVESGGGLVQAGGSLRLSCAASGFTFKWYTMGWYRQAPGKERELVAGISRRGGSTYYADSVKGRFTISRDNAKNTVYLQMNSLKPEDTAVYYCAAEFPTVYFPWSEMDYWGQGTQVTVSS | high polyreactivity
8 | QVQLVESGGGLVQAGGSLRLSCAASGFTFKYNAMGWYRQAPGKERELVASISSGSTNYADSVKGRFTISRDNAKNTVYLQMNSLKPEDTAVYYCSASVSRGKRFRYGYVFKMDYWGQGTQVTVSS | low polyreactivity
9 | QVQLVESGGGLVQAGGSLRLSCAASGFTFKYYALGWYRQAPGKERELVAAIRGSGAGTYYADSVKGRFTISRDNSKNTVYLQMNSLKPEDTAVYYCNNRWTYKWDDYWGQGTQVTVSS | high polyreactivity
10 | QVQLVESGGGLVQAGGSLRLSCAASGFTFKYYAMGWYRQAPGKERELVAAITWSGGSTYYADSVKGRFTISRDNAKNTVYLQMNSLKPEDTAVYYCNAKVYQISRYGYWGQGTQVTVSS | high polyreactivity
11 | QVQLVESGGGLVQAGGSLRLSCAASGFTFLAYSMGWYRQAPGKERELVAAIRWSGRRTYYADSVKGRFTISRDNAKNTVYLQMNSLKPEDTAVYYCAADTRRVREYNYWGQGTQVTVSS | low polyreactivity
12 | QVQLVESGGGLVQAGGSLRLSCAASGFTFLNYAMGWYRQAPGKERELVAAITRSGGSTYYADSVKGRFTISRDTAKNTVYLQMNSLKPEDTAVYYCAIGYYSPNYYYWGQGTQVTVSS | high polyreactivity
13 | QVQLVESGGGLVQAGGSLRLSCAASGFTFLRYAMGWYRPAPGKERELVAVITYGGGSTYYADSVKGRFTISRDNAKNTVYLQMNSLKPEDTAVYYCALYPRRAGGDYWGQGTQVTVSS | high polyreactivity
14 | QVQLVESGGGLVQAGGSLRLSCAASGFTFLWYGMGWYRQAPGKERELVAAISSSGGSTYYADSVKGRFTISRDNAKNTVFLQMNSLKPEDTAVYYCAVAVSNQYVRYGYWGQGTQVTVSS | low polyreactivity
15 | QVQLVESGGGLVQAGGSLRLSCAASGFTFLYYDMGWYRQAPGKERELVAAITSSGTSTYYADSVKGRFTISRDNAKNTVYLQMNSLKPEDTAVYYCAVLYTYAGRHRYGYWGQGTQVTVSS | high polyreactivity
16 | QVQLVESGGGLVQAGGSLRLSCAASGFTFNANAMGWYRQAPGKERELVAVITRSGGRTYYADSVKGRFTISRDNAKNTVYLQMNSLKPEDTEVYYCAKECPSRVYQGTDSASDYWGQGTQVTVSS | high polyreactivity
17 | QVQLVESGGGLVQAGGSLRLSCAASGFTFNDNDMGWYRQAPGKEWELVAAITYGGSTYYADSVKGRFTISRENAKNTVYLQMNSLKPEDTAVYYCNVEFFFWPYEYGYWGQGTQVNVSS | low polyreactivity
18 | QVQLVESGGGLVQAGGSLRLSCAASGFTFNDYAMGWYRQAPGKERELVAAIDWSGGRTYYADSVKGRFTISRDNAKNTVYLQMNSLKPEDTAVYYCAAVLYSRMYWYRLDYWGQGTQVTVSS | low polyreactivity
19 | QVQLVESGGGLVQAGGSLRLSCAASGFTFNFYVMGWYRQAPGKERELVAAITSNGGSTYYADSVKGRFTISRDNAKNTVYLQMNSLKPEDTAVYYCAADQYPTWSYLPFDYWGQGTQVTVSS | high polyreactivity
20 | QVQLVESGGGLVQAGGSLRLSCAASGFTFNGYAMGWYRQAPGKERELVAGITRRGGITYYADSVKGRFTISRDNAKNTVYLQMNSLNPEDTAVYYCNAYPRYIIPSIVNGYNYWGQGTQVTVSS | high polyreactivity
21 | QVQLVESGGGLVQAGGSLRLSCAASGFTFNGYARGWYRQAPGKDRELVATMTNGGSTYYADSVKGRFTISRDNAKNTVYLQMNSLKPEDTAVYYCAAESEQATPGYLAPLFDYWGQGTQVTVSS | low polyreactivity
22 | QVQLVESGGGLVQAGGSLRLSCAASGFTFNRNAMGWYRQAPGKERELVAAISWSGGSTYYADSVKGRFTLSRDNAKNTVYLQMNSLKPEETAVYYCAKGYRRVYGPFYYWGQGTQVTVSS | low polyreactivity

Row | Sequence | polyreactivity (PSR sort gate)
23 | QVQLVESGGGLVQAGGSLRLSCAASGFTFNRYAMGWYRQAPGKERELVAAISWSGTSTYYADSVKGRFTISRDNAKNTVYLQMNSLKPEDTAVYYCATRQTHSYDYWGQGTQVTVSS | high polyreactivity
24 | QVQLVESGGGLVQAGGSLRLSCAASGFTFNRYAMGWYRQAPGKERELVASITTGGRTNYADSVKGRFTISRDNAKNTVYLQMNSLKPEDTAVYYCAADYGYFYRYYYWGQGTQVTVSS | high polyreactivity
25 | QVQLVESGGGLVQAGGSLRLSCAASGFTFNSYAMGWYRQAPGKERELLAAISRIGGITYYADSVKGRFTISRDNAKNTVYLQMNSLKPEDTAVYYCNTASVYVYTGRYDYWGQGTQVTVSS | high polyreactivity
26 | QVQLVESGGGLVQAGGSLRLSCAASGFTFNSYAMGWYRQAPGKERELVAAITSSGGLTYYADSVKGRFTISRDNAKNTVYLQKNSLKPEDTAVYYCAARPGGKVATIYDYWGQGTQVTVSS | low polyreactivity
27 | QVQLVESGGGLVQAGGSLRLSCAASGFTFNTYAMGWYRQAPGKERELVAAITTSGGSTYYADSVKGRFTISRDNAKNTVYLQMNSLKPEDTAVYSCAAKSGRGVVRGRDDYWGQGTQVTVSS | high polyreactivity
28 | QVQLVESGGGLVQAGGSLRLSCAASGFTFPAYTMGWYRQAPGKEREWVAAITSSGGNTYYADSVKGRFTISRDNAKNTVYLQMNSLKPEDTAVYYCATVSVRWPSNDHVRYDYWGQGTQVTVSS | low polyreactivity
29 | QVQLVESGGGLVQAGGSLRLSCAASGFTFPENAMGWYRQAPGKERELVAAISYRGASTFYADSVKGRFTISRDNAKNTVYLQLISLKPEDTAVYYCATDPRIRYQGNPYDYWGQGTQVTVSS | high polyreactivity
30 | QVQLVESGGGLVQAGGSLRLSCAASGFTFPEYDMGWYRQAPGKERELVAAINYSDGRTFYADSVKGRFTISRDNAKNTVYLQMNSLKPEDTAVYYCATDLSYDVWFFGPDYDYWGQGTQVTVSS | low polyreactivity
31 | QVQLVESGGGLVQAGGSLRLSCAASGFTFPFNAMGWYRQAPGKERELVAAISQRTGRTYYADSVKGRFTISRDNAKNTVYLQMNSLKPEDTAVYYCNARTGTTGYGRYDYWGQGTQVTVSS | high polyreactivity
32 | QVQLVESGGGLVQAGGSLRLSCAASGFTFPGNAMGWYRQAPGKERELVAAISRSGAGTYYADSVKGRFTISRDNAKNTDYLQMNRLKPEDTAVYYCNAVYSSWDYHYRYGYWGQGTQVTVSS | high polyreactivity
33 | QVQLVESGGGLVQAGGSLRLSCAASGFTFPHYAMGWYRQAPGKERELVAAISWSGGNTYYADSVKGRFTISRDNAKNTVYLQMNSLKPEDTAVYYCAKGYSSHYWWAYDSWGQVTQVTVSS | high polyreactivity
34 | QVQLVESGGGLVQAGGSLRLSCAASGFTFPHYAMGWYRQAPGKERELVAVISWSGSSTYYADSVKGRFTISRDNAMNTVYLQMNSLKPEDTAVYYCNTRKLYQVDYDYWGQGTQVTVSS | high polyreactivity
35 | QVQLVESGGGLVQAGGSLRLSCAASGFTFPQYAMGWYRQAPGKERELFAAISKRSGGTRYADSGKGRFTISRDNSKNTVYLHMKSLKPEDTAVNYCINYGQVPGYFTLEYLGQGTQVTVSS | high polyreactivity
36 | QVQLVESGGGLVQAGGSLRLSCAASGFTFPRYAMGWYRQAPGKERELVAAISYSGGRTYYADSVKGRFTISRDNAKNTVYFQMNSLKPEDTAVYYFATEASTKRYDYWGQGTQVSVSS | high polyreactivity
37 | QVQLVESGGGLVQAGGSLRLSCAASGFTFPVNAMGWYRQAPGKERELVATINSGGSTNYADSVKGRFTISRDNAKNTVYLQMNSLKPEDTAVYYCAAAKRTADYASYWYVENDYWGQGTQVTVSS | low polyreactivity
38 | QVQLVESGGGLVQAGGSLRLSCAASGFTFPVYTMGWYRQAPGKERELVAAISGSGASTYYADSVKGRFTISRDNAKNTVYLQMNSLKPEDTAVYYCAAPLWRNYYFGWMDYWGQGTQVTVSS | high polyreactivity
39 | QVQLVESGGGLVQAGGSLRLSCAASGFTFPWNVMGWYRQAPGKEREFVAAISKSAGSTFYADSVKGRFTISRDNAKNTVYLQMNSLKPEDTAVYFCAKPRVPGVHVQEMYYWGQGTQVTVSS | low polyreactivity
40 | QVQLVESGGGLVQAGGSLRLSCAASGFTFPWYAMGSSRQAPGKERELVASISYRGDSTYYADSVKGRFTISRDNAKKTVNLQMNSLKPEDTAVYYCNKRLASYYLPGFDYWGQGTQVTVSS | low polyreactivity
41 | QVQLVESGGGLVQAGGSLRLSCAASGFTFPWYAMGWYRQAPGKERELVAVISSSGGSTYYADSVKGRFTISRDNAKNTVYLQMNSLKPEDTAVYYCNKDYYKRAYLFGYWGQGTQVTVSS | high polyreactivity
42 | QVQLVESGGGLVQAGGSLRLSCAASGFTFPYNAMGWYRQAPGKERELVAAISSTGGITYYADSVKGRFTISRDNAKNTVYLQLNSLKPEDTAVYYCGWYDYWGLGTQVTVSS | low polyreactivity
43 | QVQLVESGGGLVQAGGSLRLSCAASGFTFPYNGMGWYRQAPGKERELVASISWSGASTYYADSVKGRFTISRDNAKNTVYLQMNSLKPEDTAVYYCAADPGYYSWGSSQDDYWGQGTQVTVSS | low polyreactivity
